In PMC5750132:
Like-named read-outs stand apart in the source and are kept apart here.

Experiments:
[1] = biological target: Truncated mouse TMEM16A (amino acids 1-903) (mouse); assay: cryo-EM structure
[2] = biological target: Truncated mouse TMEM16A (amino acids 1-903) (mouse); assay: cryo-EM structure; remark: listed apart in the source

Truncated mouse TMEM16A (amino acids 1-903) (domain or fragment)
stoichiometry N [1]: 2 | stoichiometry N [2]: 2
